# Measurements taken from patent US9404925B2, “Cancer antigen and use thereof” (MEDINET CO., LTD., priority 2002, dated 2016).
# B1: hsp105 protein: recombinant hsp105 protein, heat shock protein cancer antigen (SEQ ID NO: 1), used to induce CD4 positive helper T cell lines (protein, listed as Homo sapiens)
# chain: MSVVGLDVGSQSCYIAVARAGGIETIANEFSDRCTPSVISFGSKNRTIGVAAKNQQITHANNTVSNFKRFHGRAFNDPFIQKEKENLSYDLVPLKNGGVGIKVMYMGEEHLFSVEQITAMLLTKLKETAENSLKKPVTDCVISVPSFFTDAERRSVLDAAQIVGLNCLRLMNDMTAVALNYGIYKQDLPSLDEKPRIVVFVDMGHSAFQVSACAFNKGKLKVLGTAFDPFLGGKNFDEKLVEHFCAEFKTKYKLDAKSKIRALLRLYQECEKLKKLMSSNSTDLPLNIECFMNDKDVSGKMNRSQFEELCAELLQKIEVPLYSLLEQTHLKVEDVSAVEIVGGATRIPAVKERIAKFFGKDISTTLNADEAVARGCALQCAILSPAFKVREFSVTDAVPFPISLIWNHDSEDTEGVHEVFSRNHAAPFSKVLTFLRRGPFELEAFYSDPQGVPYPEAKIGRFVVQNVSAQKDGEKSRVKVKVRVNTHGIFTISTASMVEKVPTEENEMSSEADMECLNQRPPENPDTDKNVQQDNSEAGTQPQVQTDAQQTSQSPPSPELTSEENKIPDADKANEKKVDQPPEAKKPKIKVVNVELPIEANLVWQLGKDLLNMYIETEGKMIMQDKLEKERNDAKNAVEEYVYEFRDKLCGPYEKFICEQDHQNFLRLLTETEDWLYEEGEDQAKQAYVDKLEELMKIGTPVKVRFQEAEERPKMFEELGQRLQHYAKIAADFRNKDEKYNHIDESEMKKVEKSVNEVMEWMNNVMNAQAKKSLDQDPVVRAQEIKTKIKELNNTCEPVVTQPKPKIESPKLERTPNGPNIDKKEEDLEDKNNFGAEPPHQNGECYPNEKNSVNMDLD
# Tests used:
# [1] = test system: CD4 positive helper T cell lines (Th); experiment: [3H] thymidine intake of mouse CD4 positive helper T cell line induced by hsp105; format: cell-based, BALB/c mouse; conditions: spleen cells pulsed with hsp105 protein, 72 hours, FIG. 6B
# Method: (§1) The spleen of a BALB/c mouse was collected and ground to separate spleen cells. 200,000 spleen cells per well on a 96-well flat plate were cultured in 200 μl of a culture solution containing IL-2 (100 IU/ml) and a 2 μg/ml recombinant hsp105 protein for 1 week. Thereafter, every week, the culture product was repeatedly stimulated with 200,000 spleen cells, which had been pulsed with a 2 μg/ml recombinant hsp105 protein and then exposed to radioactive rays, so as to establish multiple CD4 positive helper T cell lines (Th). The expression of CD4 and CD8 on the surface of cells was confirmed by performing immunofluorescent staining with Monoclonal Antibody MOUSE CD4-FITC, CD8-FITC (IMMUNOTECH, Marseille, France), and then analyzed with FACS (FIG. 6A). It was examined by the intake of [^3H] thymidine, whether or not Th specifically reacts with the hsp105 protein and grows. Specifically, 150,000 spleen cells were placed in each well of a 96-well flat plate, and several wells were pulsed with the hsp105 protein overnight, and the other wells were not pulsed therewith. […] Thereafter, the intake of [^3H] thymidine was measured with a liquid scintillation counter. […] Thus, IFN-γ and IL-4 secreted from Th as a result of the reaction were measured with Mouse IFN-γ, IL-4 ELISA Ready-SET-Go! […]
# [2] = test system: CD4 positive helper T cell lines (Th); experiment: IFN-γ and IL-4 ELISA of mouse Th induced by hsp105; format: cell-based, BALB/c mouse; conditions: supernatant 24 hours after addition of Th, FIG. 6C
# Method: as §1
# [3] = test system: Colon-26; experiment: In vivo antitumor activity of mouse Th induced by hsp105, local injection into Colon-26 tumor; parameters: species or system BALB/c mouse; conditions: tumor with a size of 3 mm, FIG. 6D
# Method: as §1
# [4] = test system: CD4 positive helper T cell lines (Th); experiment: [3H] thymidine intake of CD4 positive helper T cell line of colon cancer patient induced by hsp105; format: cell-based, human; conditions: FIG. 7A
# Method: as §1, with “6A).” for “6A). It was examined by the intake of [^3H] thymidine, whether or not Th specifically reacts with the hsp105 protein and grows. Specifically, 150,000 spleen cells were placed in each well of a 96-well flat plate, and several wells were pulsed with the hsp105 protein overnight, and the other wells were not pulsed therewith.”
# (§2) Monocytes were separated from the peripheral blood. […] The expression of CD4 and CD8 on the surface of cells was confirmed by performing immunofluorescent staining using Pharmingen anti-human CD4, CD8-FITC, and then analyzed with FACS. […] In addition, in the same manner as in Example 7, IFN-γ and IL-4 secreted from Th as a result of the reaction were measured using Human IFN-γ, IL-4 US ELISA Kit (BIOSOURCE, Camarillo, Calif.). […]
# [5] = test system: CD4 positive helper T cell lines (Th); experiment: IFN-γ and IL-4 ELISA of colon cancer patient Th induced by hsp105; format: cell-based, human; conditions: FIG. 7B
# Method: as §1, with “6A).” for “6A). It was examined by the intake of [^3H] thymidine, whether or not Th specifically reacts with the hsp105 protein and grows. Specifically, 150,000 spleen cells were placed in each well of a 96-well flat plate, and several wells were pulsed with the hsp105 protein overnight, and the other wells were not pulsed therewith.”
# as §2
molecule,measurement,setting,value
B1,hsp105 protein-specific growth of Th ([3H] thymidine intake),[1],specifically reacted with the hsp105 protein and grew
same,IFN-γ and IL-4 secreted from Th,[2],generates a large amount of IFN-γ
same,growth of Colon-26 tumor after local injection of Th,[3],clearly retarded
same,hsp105 protein-specific growth of Th ([3H] thymidine intake),[4],specifically reacted with the hsp105 protein and grew
same,IFN-γ and IL-4 secreted from Th,[5],generates a large amount of IFN-γ
